From patent publication US20250326813A1

Target: T1, human IL2Rβ Fc fusion protein (human) (UniProt P14784)
T1 sequence (looked up): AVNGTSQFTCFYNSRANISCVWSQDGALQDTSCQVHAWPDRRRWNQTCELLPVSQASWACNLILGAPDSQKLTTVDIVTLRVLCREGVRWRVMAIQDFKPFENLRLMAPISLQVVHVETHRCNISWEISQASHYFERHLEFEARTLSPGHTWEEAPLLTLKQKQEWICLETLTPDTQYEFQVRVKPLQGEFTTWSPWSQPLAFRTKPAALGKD
Assay: ELISA, single concentration, anti-flag detection, E. coli-produced clone

OD450 nm: 0.871 OD450
B1: EP569 (clone 2021EP22-E03), E. coli-produced (ligand)
chain: APASSSTKKTQLQLEHLLLDLQMILNGINNYKNPKLTRMLTFKFYMPKKATELKHLQCLEEELKPLEEVLNLAQSKNFHLRRKESINHMIVVFPVLKGSETTFMCEYADETATIVEFLNRWITFSQSIISTLT
